The source of these data is article doi:10.1101/2021.11.17.468963.

The target in this assay is human glyceraldehyde 3-phosphate dehydrogenase (GAPDH) (human) (UniProt P04406). Nature of the assay: cryo-EM structure.

As a reminder, the stoichiometry N is the number of molecules, sites or subunits per partner or assembly.

human glyceraldehyde 3-phosphate dehydrogenase (GAPDH), P04406 1-335 (enzyme; other documents disagree on this pair), sequence (P04406 whole entry): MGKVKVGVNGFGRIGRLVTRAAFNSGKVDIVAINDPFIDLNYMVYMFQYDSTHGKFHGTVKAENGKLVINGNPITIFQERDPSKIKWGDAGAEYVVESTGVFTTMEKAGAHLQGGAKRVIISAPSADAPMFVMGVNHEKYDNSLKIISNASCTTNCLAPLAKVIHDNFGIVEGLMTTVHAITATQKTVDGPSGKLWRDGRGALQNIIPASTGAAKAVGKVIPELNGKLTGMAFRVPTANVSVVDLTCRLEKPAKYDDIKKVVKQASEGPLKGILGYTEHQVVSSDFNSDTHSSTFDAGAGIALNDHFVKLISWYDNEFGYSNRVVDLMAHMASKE

In turn, “human glyceraldehyde 3-phosphate dehydrogenase (GAPDH), P04406 1-335 (enzyme; other documents disagree on this pair)” gave a stoichiometry N of 4.
